Drawing on publication PMC5095618 (Chemico-biological interactions, 2015), this text covers Kd, binding result and kon for two molecules.

Test [1] has as its target T1, Human butyrylcholinesterase (Homo sapiens, UniProt P06276). Put plainly: SPR.
Test [2] deals with T1, Human butyrylcholinesterase. Put plainly: ELISA.
For a further test, the target named is human albumin (Homo sapiens, UniProt P02768). As to the kind of experiment: affinity purification with mass spectrometry.
Test [3] deals with T1, Human butyrylcholinesterase. Put plainly: BLI.

T1 sequence (P06276 29-602): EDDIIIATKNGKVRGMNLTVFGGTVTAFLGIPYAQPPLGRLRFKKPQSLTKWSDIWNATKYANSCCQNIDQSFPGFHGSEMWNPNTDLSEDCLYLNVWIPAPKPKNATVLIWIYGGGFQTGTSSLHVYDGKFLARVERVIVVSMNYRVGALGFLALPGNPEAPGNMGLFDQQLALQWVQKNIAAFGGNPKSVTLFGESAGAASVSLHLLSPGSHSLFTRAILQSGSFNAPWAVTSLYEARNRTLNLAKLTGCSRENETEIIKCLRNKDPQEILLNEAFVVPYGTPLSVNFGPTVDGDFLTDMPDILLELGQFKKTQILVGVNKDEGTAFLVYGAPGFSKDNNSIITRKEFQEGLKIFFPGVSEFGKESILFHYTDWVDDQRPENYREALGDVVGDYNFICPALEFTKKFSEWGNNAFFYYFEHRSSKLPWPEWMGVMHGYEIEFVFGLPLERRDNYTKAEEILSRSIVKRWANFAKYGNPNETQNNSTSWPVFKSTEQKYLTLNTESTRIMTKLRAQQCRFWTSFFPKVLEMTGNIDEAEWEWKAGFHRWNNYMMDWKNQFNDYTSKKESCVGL
Sequence of human albumin (P02768 25-609): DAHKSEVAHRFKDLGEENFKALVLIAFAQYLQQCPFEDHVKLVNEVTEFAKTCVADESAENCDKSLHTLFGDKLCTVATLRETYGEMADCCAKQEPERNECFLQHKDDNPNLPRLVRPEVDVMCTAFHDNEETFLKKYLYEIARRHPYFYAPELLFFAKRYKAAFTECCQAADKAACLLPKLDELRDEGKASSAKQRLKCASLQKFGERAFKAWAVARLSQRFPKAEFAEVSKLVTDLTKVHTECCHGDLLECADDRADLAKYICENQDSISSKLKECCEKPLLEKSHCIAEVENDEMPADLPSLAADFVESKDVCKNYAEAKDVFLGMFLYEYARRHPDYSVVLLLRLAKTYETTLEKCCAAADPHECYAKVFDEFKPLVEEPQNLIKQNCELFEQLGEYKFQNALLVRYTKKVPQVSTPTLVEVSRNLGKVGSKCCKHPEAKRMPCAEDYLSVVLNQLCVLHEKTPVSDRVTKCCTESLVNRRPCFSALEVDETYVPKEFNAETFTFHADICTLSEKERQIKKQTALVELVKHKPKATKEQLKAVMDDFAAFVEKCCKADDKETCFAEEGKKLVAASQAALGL

B1: mouse anti-HuBChE monoclonal antibody 11D8 (antibody, V domains shown)
VH: QVQLQQSGAELARPGASVKLSCKASGYTFTSQWLQWVKQRPGQGLEWIGAIYPGDGDTRYTQKFKGKATLTADKSSSTAYMQLTNLAPEDSAVYYCARSSMDYWGQGTSVTVSS
VL: DILLTQSPAILSVSPGERVRLSCRASQSCGTSIYWYQQRTNGSPRLLIMYASEPFSGIPSRFSGSGSGTDFTLSINSVESEDIADYYCQQSNSWPWTFGGGTRLEIK
Take B1: the equilibrium dissociation constant (Kd) in test [1] was 0.9 nM; in test [2], 0.26 nM. The binding result with human albumin was “binds”.

B2: mouse anti-HuBChE monoclonal antibody B2 12-1 (antibody, V domains shown)
VH: EVQLQQSGPELVKPGASVKISCKASGYTFTDYSMHWVKLSHGKSLEWIGYIYPYNDDTDYNQKFKTKATLTVDSSSSITYLELRSLTSEDSAVYYCARSDGYSYYFDYWGQGTTLTVSS
VL: DIVMTQSPATLSVTPGDRVSLSCRASQSISDYLHWYQQKSHESPRLLIKYASQSISGIPSRFSGGGSGSDFTLSINSVEPEDVGVYYCQNGHRFPLTFGAGTKLELK
In test [3], B2 gave a kon of 800000 to 1.2e+06 M⁻¹ s⁻¹. Moreover, the Kd is 0.14 nM in test [1] and 1.41 nM in test [2].
